Square brackets hold non-standard residues; d marks the D form. Ends that are not written are not given here. pS = N[C@@H](COP(=O)(O)O)C(=O)O
B1: fluorescently labeled phosphopeptide VNKpSYFND-fluorescein (peptide)
peptide: VNK[pS]YFND-fluorescein

How the values were obtained:
[1] = target: B1; assay: fluorescence polarisation
[2] = target: BRCA1 BRCT domains, wild type (residues 1646-1863) (UniProt P38398 1646-1863); assay: fluorescence polarisation

| Binder | fold reduction in affinity against wild type [1] [fold] | also measured |
| --- | --- | --- |
| BRCA1 BRCT A1843P (domain or fragment, UniProt P38398 1646-1863, looked up) VNKRMSMVVSGLTPEEFMLVYKFARKHHITLTNLITEETTHVVMKTDAEFVCERTLKYFLGIAGGKWVVSYFWVTQSIKERKMLNEHDFEVRGDVVNGRNHQGPKRARESQDRKIFRGLEICCYGPFTNMPTDQLEWMVQLCGASVVKELSSFTLGTGVHPIVVVQPDAWTEDNGFHAIGQMCEAPVVTREWVLDSVPLYQCQELDTYLIPQIPHSHY | ≤ 1.5 |  |
| BRCA1 BRCT M1783T (domain or fragment, UniProt P38398 1646-1863, looked up) VNKRMSMVVSGLTPEEFMLVYKFARKHHITLTNLITEETTHVVMKTDAEFVCERTLKYFLGIAGGKWVVSYFWVTQSIKERKMLNEHDFEVRGDVVNGRNHQGPKRARESQDRKIFRGLEICCYGPFTNMPTDQLEWTVQLCGASVVKELSSFTLGTGVHPIVVVQPDAWTEDNGFHAIGQMCEAPVVTREWVLDSVALYQCQELDTYLIPQIPHSHY | ≤ 1.5 |  |
| BRCA1 BRCT G1706A (domain or fragment, UniProt P38398 1646-1863, looked up) VNKRMSMVVSGLTPEEFMLVYKFARKHHITLTNLITEETTHVVMKTDAEFVCERTLKYFLAIAGGKWVVSYFWVTQSIKERKMLNEHDFEVRGDVVNGRNHQGPKRARESQDRKIFRGLEICCYGPFTNMPTDQLEWMVQLCGASVVKELSSFTLGTGVHPIVVVQPDAWTEDNGFHAIGQMCEAPVVTREWVLDSVALYQCQELDTYLIPQIPHSHY | ~1.4 |  |
| BRCA1 BRCT L1664P (domain or fragment, UniProt P38398 1646-1863, looked up) VNKRMSMVVSGLTPEEFMPVYKFARKHHITLTNLITEETTHVVMKTDAEFVCERTLKYFLGIAGGKWVVSYFWVTQSIKERKMLNEHDFEVRGDVVNGRNHQGPKRARESQDRKIFRGLEICCYGPFTNMPTDQLEWMVQLCGASVVKELSSFTLGTGVHPIVVVQPDAWTEDNGFHAIGQMCEAPVVTREWVLDSVALYQCQELDTYLIPQIPHSHY | ~1.4 |  |
| BRCA1 BRCT M1652I (domain or fragment, UniProt P38398 1646-1863, looked up) VNKRMSIVVSGLTPEEFMLVYKFARKHHITLTNLITEETTHVVMKTDAEFVCERTLKYFLGIAGGKWVVSYFWVTQSIKERKMLNEHDFEVRGDVVNGRNHQGPKRARESQDRKIFRGLEICCYGPFTNMPTDQLEWMVQLCGASVVKELSSFTLGTGVHPIVVVQPDAWTEDNGFHAIGQMCEAPVVTREWVLDSVALYQCQELDTYLIPQIPHSHY | ~1.4 |  |
| BRCA1 BRCT G1788V (domain or fragment, UniProt P38398 1646-1863, looked up) VNKRMSMVVSGLTPEEFMLVYKFARKHHITLTNLITEETTHVVMKTDAEFVCERTLKYFLGIAGGKWVVSYFWVTQSIKERKMLNEHDFEVRGDVVNGRNHQGPKRARESQDRKIFRGLEICCYGPFTNMPTDQLEWMVQLCVASVVKELSSFTLGTGVHPIVVVQPDAWTEDNGFHAIGQMCEAPVVTREWVLDSVALYQCQELDTYLIPQIPHSHY | ~1.4 |  |
| BRCA1 BRCT T1773S (domain or fragment, UniProt P38398 1646-1863, looked up) VNKRMSMVVSGLTPEEFMLVYKFARKHHITLTNLITEETTHVVMKTDAEFVCERTLKYFLGIAGGKWVVSYFWVTQSIKERKMLNEHDFEVRGDVVNGRNHQGPKRARESQDRKIFRGLEICCYGPFSNMPTDQLEWMVQLCGASVVKELSSFTLGTGVHPIVVVQPDAWTEDNGFHAIGQMCEAPVVTREWVLDSVALYQCQELDTYLIPQIPHSHY | ~1.4 |  |
| BRCA1 BRCT D1692N (domain or fragment, UniProt P38398 1646-1863, looked up) VNKRMSMVVSGLTPEEFMLVYKFARKHHITLTNLITEETTHVVMKTNAEFVCERTLKYFLGIAGGKWVVSYFWVTQSIKERKMLNEHDFEVRGDVVNGRNHQGPKRARESQDRKIFRGLEICCYGPFTNMPTDQLEWMVQLCGASVVKELSSFTLGTGVHPIVVVQPDAWTEDNGFHAIGQMCEAPVVTREWVLDSVALYQCQELDTYLIPQIPHSHY | ~1.4 |  |
| B1 |  | Kd [2]: 112 ± 6 nM |
| BRCA1 BRCT D1778N (domain or fragment, UniProt P38398 1646-1863, looked up) VNKRMSMVVSGLTPEEFMLVYKFARKHHITLTNLITEETTHVVMKTDAEFVCERTLKYFLGIAGGKWVVSYFWVTQSIKERKMLNEHDFEVRGDVVNGRNHQGPKRARESQDRKIFRGLEICCYGPFTNMPTNQLEWMVQLCGASVVKELSSFTLGTGVHPIVVVQPDAWTEDNGFHAIGQMCEAPVVTREWVLDSVALYQCQELDTYLIPQIPHSHY |  | fold increase in affinity against wild type [1]: ~1.5 fold |
| BRCA1 BRCT V1665M (domain or fragment, UniProt P38398 1646-1863, looked up) VNKRMSMVVSGLTPEEFMLMYKFARKHHITLTNLITEETTHVVMKTDAEFVCERTLKYFLGIAGGKWVVSYFWVTQSIKERKMLNEHDFEVRGDVVNGRNHQGPKRARESQDRKIFRGLEICCYGPFTNMPTDQLEWMVQLCGASVVKELSSFTLGTGVHPIVVVQPDAWTEDNGFHAIGQMCEAPVVTREWVLDSVALYQCQELDTYLIPQIPHSHY | ~1.4 |  |
| BRCA1 BRCT R1699W (domain or fragment, UniProt P38398 1646-1863, looked up) VNKRMSMVVSGLTPEEFMLVYKFARKHHITLTNLITEETTHVVMKTDAEFVCEWTLKYFLGIAGGKWVVSYFWVTQSIKERKMLNEHDFEVRGDVVNGRNHQGPKRARESQDRKIFRGLEICCYGPFTNMPTDQLEWMVQLCGASVVKELSSFTLGTGVHPIVVVQPDAWTEDNGFHAIGQMCEAPVVTREWVLDSVALYQCQELDTYLIPQIPHSHY | ~300 |  |
| BRCA1 BRCT M1775R (domain or fragment, UniProt P38398 1646-1863, looked up) VNKRMSMVVSGLTPEEFMLVYKFARKHHITLTNLITEETTHVVMKTDAEFVCERTLKYFLGIAGGKWVVSYFWVTQSIKERKMLNEHDFEVRGDVVNGRNHQGPKRARESQDRKIFRGLEICCYGPFTNRPTDQLEWMVQLCGASVVKELSSFTLGTGVHPIVVVQPDAWTEDNGFHAIGQMCEAPVVTREWVLDSVALYQCQELDTYLIPQIPHSHY | ~1.4 |  |
| BRCA1 BRCT R1751Q (domain or fragment, UniProt P38398 1646-1863, looked up) VNKRMSMVVSGLTPEEFMLVYKFARKHHITLTNLITEETTHVVMKTDAEFVCERTLKYFLGIAGGKWVVSYFWVTQSIKERKMLNEHDFEVRGDVVNGRNHQGPKQARESQDRKIFRGLEICCYGPFTNMPTDQLEWMVQLCGASVVKELSSFTLGTGVHPIVVVQPDAWTEDNGFHAIGQMCEAPVVTREWVLDSVALYQCQELDTYLIPQIPHSHY | ~1.4 |  |
| BRCA1 BRCT V1736A (domain or fragment, UniProt P38398 1646-1863, looked up) VNKRMSMVVSGLTPEEFMLVYKFARKHHITLTNLITEETTHVVMKTDAEFVCERTLKYFLGIAGGKWVVSYFWVTQSIKERKMLNEHDFEARGDVVNGRNHQGPKRARESQDRKIFRGLEICCYGPFTNMPTDQLEWMVQLCGASVVKELSSFTLGTGVHPIVVVQPDAWTEDNGFHAIGQMCEAPVVTREWVLDSVALYQCQELDTYLIPQIPHSHY | ~5 |  |
| BRCA1 BRCT R1699L (domain or fragment, UniProt P38398 1646-1863, looked up) VNKRMSMVVSGLTPEEFMLVYKFARKHHITLTNLITEETTHVVMKTDAEFVCELTLKYFLGIAGGKWVVSYFWVTQSIKERKMLNEHDFEVRGDVVNGRNHQGPKRARESQDRKIFRGLEICCYGPFTNMPTDQLEWMVQLCGASVVKELSSFTLGTGVHPIVVVQPDAWTEDNGFHAIGQMCEAPVVTREWVLDSVALYQCQELDTYLIPQIPHSHY | ~100 |  |
| BRCA1 BRCT V1808A (domain or fragment, UniProt P38398 1646-1863, looked up) VNKRMSMVVSGLTPEEFMLVYKFARKHHITLTNLITEETTHVVMKTDAEFVCERTLKYFLGIAGGKWVVSYFWVTQSIKERKMLNEHDFEVRGDVVNGRNHQGPKRARESQDRKIFRGLEICCYGPFTNMPTDQLEWMVQLCGASVVKELSSFTLGTGVHPIAVVQPDAWTEDNGFHAIGQMCEAPVVTREWVLDSVALYQCQELDTYLIPQIPHSHY | ≤ 1.5 |  |
| BRCA1 BRCT G1788D (domain or fragment, UniProt P38398 1646-1863, looked up) VNKRMSMVVSGLTPEEFMLVYKFARKHHITLTNLITEETTHVVMKTDAEFVCERTLKYFLGIAGGKWVVSYFWVTQSIKERKMLNEHDFEVRGDVVNGRNHQGPKRARESQDRKIFRGLEICCYGPFTNMPTDQLEWMVQLCDASVVKELSSFTLGTGVHPIVVVQPDAWTEDNGFHAIGQMCEAPVVTREWVLDSVALYQCQELDTYLIPQIPHSHY | ≤ 1.5 |  |
| BRCA1 BRCT R1699Q (domain or fragment, UniProt P38398 1646-1863, looked up) VNKRMSMVVSGLTPEEFMLVYKFARKHHITLTNLITEETTHVVMKTDAEFVCEQTLKYFLGIAGGKWVVSYFWVTQSIKERKMLNEHDFEVRGDVVNGRNHQGPKRARESQDRKIFRGLEICCYGPFTNMPTDQLEWMVQLCGASVVKELSSFTLGTGVHPIVVVQPDAWTEDNGFHAIGQMCEAPVVTREWVLDSVALYQCQELDTYLIPQIPHSHY | ~100 |  |

From paper PMC2888420 (The Journal of Biological Chemistry, 2010)
